Results on four substances are retold here after publication PMC11721465.

The target of test [1] is TREM2 (19–134) WT, biotinylated (human) (UniProt Q9NZC2). The experiment in a line: BLI; sequential competition: biotinylated TREM2 WT on SA biosensors dipped into a first ligand or no ligand, then buffer, then a second ligand; binding of the second ligand = response at end minus beginning of Association 2. In general terms: Biolayer interferometry detects binding as a change in optical thickness at a sensor tip.
TREM2 (19–134) WT, biotinylated (human), sequence (Q9NZC2 19-134): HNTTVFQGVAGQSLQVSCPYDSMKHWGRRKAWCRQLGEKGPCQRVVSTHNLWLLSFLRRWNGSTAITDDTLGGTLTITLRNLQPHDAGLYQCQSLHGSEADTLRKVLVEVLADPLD

For test [2], the target named is TREM2 (19–134) R62H, biotinylated (human) (UniProt Q9NZC2). The experiment in a line: BLI; biotinylated TREM2 WT or variant immobilised on SA biosensors; C1q 62.5–1000 nM; PBS with 0.1% BSA and 0.005% Tween-20; 1:1 kinetic fits.
TREM2 (19–134) R62H, biotinylated (human), sequence (Q9NZC2 19-134 R62H): as the sequence (Q9NZC2 19-134) above, with R44H counted along it
In test [3] the target is TREM2 (19–134) R122D/K123D, biotinylated (human) (UniProt Q9NZC2). The description is as above.
TREM2 (19–134) R122D/K123D, biotinylated (human), sequence (Q9NZC2 19-134 R122D/K123D): as the sequence (Q9NZC2 19-134) above, with R104D, K105D counted along it
Test [4] addresses TREM2 (19–134) M41D, biotinylated (human) (UniProt Q9NZC2). Described as above.
For test [5], the target named is TREM2 (19–134) L71D, biotinylated (human) (UniProt Q9NZC2). Described as above.
TREM2 (19–134) L71D, biotinylated (human), sequence (Q9NZC2 19-134 L71D): as the sequence (Q9NZC2 19-134) above, with L53D counted along it
For test [6], the target named is TREM2 (19–134) L75D, biotinylated (human) (UniProt Q9NZC2). Described as above.
TREM2 (19–134) L75D, biotinylated (human), sequence (Q9NZC2 19-134 L75D): as the sequence (Q9NZC2 19-134) above, with L57D counted along it
The target of test [7] is TREM2 (19–134) R76D, biotinylated (human) (UniProt Q9NZC2). The description is as above.
TREM2 (19–134) R76D, biotinylated (human), sequence (Q9NZC2 19-134 R76D): as the sequence (Q9NZC2 19-134) above, with R58D counted along it
In test [8] the target is TREM2 (19–134) F74D, biotinylated (human) (UniProt Q9NZC2). The description is as above.
TREM2 (19–134) F74D, biotinylated (human), sequence (Q9NZC2 19-134 F74D): as the sequence (Q9NZC2 19-134) above, with F56D counted along it
Test [9] has as its target TREM2 (19–134) R47H, biotinylated (human) (UniProt Q9NZC2). The test is described as above.
The target in test [10] is TREM2 (19–134) WT, biotinylated (human) (UniProt Q9NZC2). The description is as above.
Test [11] has as its target TREM2 (19–134) T85D, biotinylated (human) (UniProt Q9NZC2). The description is as above.
A further test has as its target C1q (Homo sapiens) (UniProt P02745). To be noted: cited from earlier work.
Test [12] addresses TREM2 (19–134) D87N, biotinylated (human) (UniProt Q9NZC2). The experiment in a line: BLI; biotinylated TREM2 WT or variant immobilised on streptavidin (SA) biosensors; apoE in solution (apoE4 0.012–50 µM); PBS with 0.1% BSA and 0.005% Tween-20; double-reference subtraction; steady-state analysis.

C1q (Homo sapiens), sequence (P02745 23-245, chain 1 of 3): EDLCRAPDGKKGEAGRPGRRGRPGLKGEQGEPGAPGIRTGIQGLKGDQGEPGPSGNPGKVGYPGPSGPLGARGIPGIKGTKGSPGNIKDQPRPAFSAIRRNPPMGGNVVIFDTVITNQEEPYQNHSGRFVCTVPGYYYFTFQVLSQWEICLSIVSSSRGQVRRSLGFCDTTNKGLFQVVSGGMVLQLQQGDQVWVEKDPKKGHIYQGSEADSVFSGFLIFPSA
C1q (Homo sapiens), sequence (P02746 28-253, chain 2 of 3, further chain): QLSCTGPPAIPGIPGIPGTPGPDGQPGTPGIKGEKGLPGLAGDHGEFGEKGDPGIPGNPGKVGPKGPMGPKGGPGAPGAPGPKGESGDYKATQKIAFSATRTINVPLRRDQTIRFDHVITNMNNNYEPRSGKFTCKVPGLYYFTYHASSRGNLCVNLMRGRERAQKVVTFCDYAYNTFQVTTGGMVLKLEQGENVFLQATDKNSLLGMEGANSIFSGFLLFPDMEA
C1q (Homo sapiens), sequence (P02747 29-245, chain 3 of 3, further chain): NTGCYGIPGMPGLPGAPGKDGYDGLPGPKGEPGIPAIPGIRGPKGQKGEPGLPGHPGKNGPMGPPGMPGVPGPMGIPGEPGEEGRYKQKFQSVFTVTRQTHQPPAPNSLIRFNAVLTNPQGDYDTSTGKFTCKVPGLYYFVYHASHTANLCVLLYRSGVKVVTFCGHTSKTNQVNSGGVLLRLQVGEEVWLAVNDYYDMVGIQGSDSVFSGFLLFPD
TREM2 (19–134) T85D, biotinylated (human), sequence (Q9NZC2 19-134 T85D): as the sequence (Q9NZC2 19-134) above, with T67D counted along it
TREM2 (19–134) D87N, biotinylated (human), sequence (Q9NZC2 19-134 D87N): as the sequence (Q9NZC2 19-134) above, with D69N counted along it
TREM2 (19–134) M41D, biotinylated (human), sequence (Q9NZC2 19-134 M41D): as the sequence (Q9NZC2 19-134) above, with M23D counted along it
TREM2, sequence (Q9NZC2 19-174): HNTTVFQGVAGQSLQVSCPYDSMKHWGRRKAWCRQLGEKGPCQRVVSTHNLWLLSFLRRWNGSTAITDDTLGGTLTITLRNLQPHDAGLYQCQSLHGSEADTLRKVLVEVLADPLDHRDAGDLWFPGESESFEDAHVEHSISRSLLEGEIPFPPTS
TREM2 (19–134) R47H, biotinylated (human), sequence (Q9NZC2 19-134 R47H): as the sequence (Q9NZC2 19-134) above, with R29H counted along it

Complement C1q (complex): the percent decrease of apoE4 (500 nM) binding to TREM2 after pre-binding 1000 nM C1q in test [1] is 3%. For the same substance, the percent inhibition of oAβ42 (500 nM) binding to TREM2 after pre-binding 1000 nM C1q in test [1] was 22%. For the same substance, the Kd in test [2] is 1660 nM; in test [3], 820 nM; in test [4] it was 2540 nM; in test [5], 58 nM; in test [6] it was 110 nM; in test [7], 13800 nM. In addition, the Kd in test [8] is 110 nM; in test [9], 180 nM; in [10], 650 nM; in test [11], 110 nM.
Regarding TREM2 (from UniProt Q9NZC2), in the test with C1q (Homo sapiens), the Kd is 7.35 nM.
“apolipoprotein E2 (from UniProt P02649 19-317) (ligand)” had a Kd in test [12] of 52 nM.
Take “apolipoprotein E4 (from UniProt P02649 19-317) (ligand)”: the percent reduction of oAβ42 (500 nM) binding to TREM2 after pre-binding 10 µM apoE4 in [1] came out at 67%.

Broadly, the Kd is a measure of binding affinity in units of concentration.
